Test results as given in article PMC4310594.

Molecular target: T1, RamA (Klebsiella pneumoniae (Ecl8?)) (UniProt Q48413)
T1 sequence: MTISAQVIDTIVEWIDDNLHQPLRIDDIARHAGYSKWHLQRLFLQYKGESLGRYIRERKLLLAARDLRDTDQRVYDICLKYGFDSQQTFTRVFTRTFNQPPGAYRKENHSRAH
Test: EMSA

Row | Sequence | binding
1 | GCACTTCAACTAAATTCGCCTGAGTTTGGCTCATAAAATCATCCTTACTAAACACCTGACGGGCAAGCATGGCCCTTTCTTGCGCCACAATCACAACATTTTTACAGAATCTTACCTGCACAGGTTAGCGAAAGCTGGCATTTGTTTTACTTTTGGCACACATAAAGTCAAAATTAAGAATTCGTTACGCTGCGTAGGGATAACCCAGCGAGGCGACGATTATACCTGAAG (double strand) [yrbF promoter] | binds
2 | GCCTGCATAATCGTTTCCTGACAAAAAAGGGTATTGTGACCGATAGTCGCCCACTTGCAAAACCTCTCTGCGCGGTTGGTCATTACCCACCGCACAAATGGGACGTGTTTTTTCGGCTGAAATCGTTACAATCAGGAAATCATACTATCTGGAGTGAACCATGTTAGAGCTTTTGAAAAGTCTGGTTTTTGCGGTCATCATGGTACCGGTGGTGATGGCGGTCATCCTGGGACTGATTTACGGTCTTGGCGAAGTGTTCAAC (double strand) [ybhT promoter] | binds
3 | GGAAACGATTGCCAGGACTGGTGCTTCAGGCCTGATAAACCGCTCACTTTGTTAACAACAGTGCTCAGATTTTAATGCATTATTAAAGATGCAGCTTTTCTGGCTGGCGCGTCCAGGATGCGCCAGGCTGGAAGAAGACCTTCAATCTGATGACGATGCTGTAGCAAAGTGAGCCTTTATGACTGACAAATCTGTTCCATTCTCGGTGCTCGATCTGGCGCCGATCCCGCAAGGATCTTCTGCCAAAGAAGCCTTTACCCA (double strand) [yhbW promoter] | binds
